Measurements: publication PMC4852379

How the values were obtained:
[1] = target: antibody 5J8, FA variant (Q295F/Y296A), EAS-stabilized (human); experiment: BLI
[2] = target: antibody 5J8, wild type (human IgG1 monoclonal antibody) (human); experiment: BLI

Kd [1] | Kd [2] | Substance
1000 nM | – | Fc gamma receptor IIIa (FcγRIIIa), recombinant (from UniProt P08637 17-208)
– | 270 nM | Fc gamma receptor IIa (FcγRIIa), recombinant (from UniProt P12318 34-217)
